For the data set, the system named is individuals with type 2 diabetes. Kind of data set: Vital signs during hypoglycaemia induction. The conditions noted are these: for Change in SBP at PG3.0 mmol/l, least-squares mean / Change in pulse at PG3.0 mmol/l, least-squares mean / Change in DBP at PGnadir, least-squares mean / Change in SBP at PGnadir, least-squares mean / Change in pulse at PGnadir, least-squares mean / Change in DBP at PG3.0 mmol/l, least-squares mean: change from baseline, subgroup.

Setting [1] is: double dose, n=17 icodec, 15 glargine U100.
Setting [2] is: double dose, n=20 icodec, 19 glargine U100.
Setting [3] is: triple dose, n=20 icodec, 28 glargine U100.
[4] abbreviates: triple dose, n=20 icodec, 29 glargine U100.

Description: Hypoglycaemic response assessments were conducted at predefined PG levels during hypoglycaemia development and recovery (Fig. 1b). Hypoglycaemic symptoms score (HSS), hypoglycaemia awareness, counterregulatory hormones, vital signs and cognitive function tests were assessed at baseline (PG5.5 mmol/l), during hypoglycaemia development (PG3.9 mmol/l and PG3.0 mmol/l) and at PGnadir. In addition, counterregulatory hormones and vital signs were assessed during recovery from hypoglycaemia at PG3.0 mmol/l, PG3.9 mmol/l and PG5.5 mmol/l.
Vital signs (diastolic blood pressure, systolic blood pressure and pulse) were measured after ≥5 min of rest in a supine position.
Changes in HSS, vital signs and cognitive function tests from baseline (PG5.5 mmol/l) to PG3.0 mmol/l and to PGnadir were compared between insulin products at each of the two dose levels using the same approach as described for PGnadir, except that no logarithmic transformation was done and that the baseline value was included as a covariate. Least-squares means, treatment difference and 95% CI were derived.

As to insulin icodec, under “double dose”, the “Change in DBP at PG3.0 mmol/l, treatment difference (95% CI) icodec vs glargine U100” value is 1.7 (-3.1, 6.4); the “Change in DBP at PGnadir, treatment difference (95% CI) icodec vs glargine U100” value is 0.5 (-4.0, 4.9); the “Change in SBP at PG3.0 mmol/l, treatment difference (95% CI) icodec vs glargine U100” value was 3.7 (-4.3, 11.7); the “Change in SBP at PGnadir, treatment difference (95% CI) icodec vs glargine U100” value is -5.2 (-16.5, 6.1). For the same substance, where the note is “double dose”, the “Change in pulse at PG3.0 mmol/l, treatment difference (95% CI) icodec vs glargine U100” value is recorded as -0.9 (-7.4, 5.7) and the “Change in pulse at PGnadir, treatment difference (95% CI) icodec vs glargine U100” value is 0.2 (-5.0, 5.4). Further, under setting [1], the “Change in SBP at PG3.0 mmol/l, least-squares mean” value was -4.9 mmHg and the “Change in pulse at PG3.0 mmol/l, least-squares mean” value is listed as -1.3 beats/min. In addition, under setting [2], the “Change in DBP at PGnadir, least-squares mean” value was -5.4 mmHg; the “Change in SBP at PGnadir, least-squares mean” value is -7.7 mmHg; the “Change in pulse at PGnadir, least-squares mean” value is listed as 1.2 beats/min. Also, the “Change in DBP at PG3.0 mmol/l, least-squares mean” value (double dose, supine, n=17 icodec, 15 glargine U100) is -6.1 mmHg. Besides, for the setting “triple dose”, the “Change in DBP at PG3.0 mmol/l, treatment difference (95% CI) icodec vs glargine U100” value was 0.8 (-3.4, 5.0); the “Change in DBP at PGnadir, treatment difference (95% CI) icodec vs glargine U100” value is recorded as 3.6 (-0.8, 8.0); the “Change in SBP at PG3.0 mmol/l, treatment difference (95% CI) icodec vs glargine U100” value is reported as 0.7 (-6.6, 8.0); the “Change in SBP at PGnadir, treatment difference (95% CI) icodec vs glargine U100” value is 3.9 (-2.2, 10.0). In addition, under “triple dose”, the “Change in pulse at PG3.0 mmol/l, treatment difference (95% CI) icodec vs glargine U100” value was 0.8 (-4.4, 5.9) and the “Change in pulse at PGnadir, treatment difference (95% CI) icodec vs glargine U100” value is recorded as 0.5 (-4.8, 5.7). Also, under setting [3], the “Change in DBP at PG3.0 mmol/l, least-squares mean” value is on record as -2.4 mmHg; the “Change in SBP at PG3.0 mmol/l, least-squares mean” value is -0.9 mmHg; the “Change in pulse at PG3.0 mmol/l, least-squares mean” value is 3.1 beats/min. Under setting [4], the “Change in DBP at PGnadir, least-squares mean” value is recorded as -1.1 mmHg; the “Change in SBP at PGnadir, least-squares mean” value is reported as 1.8 mmHg; the “Change in pulse at PGnadir, least-squares mean” value worked out at 2.8 beats/min.

For the origin of these results see article PMC10317887, “Hypoglycaemia frequency and physiological response after double or triple doses of once-weekly insulin icodec vs once-daily insulin glargine U100 in type 2 diabetes: a randomised crossover trial” (Diabetologia, 2023).
